B1: ATGL (PNPLA2, patatin-like phospholipase domain-containing protein 2), human, full length / CGI-58 (ABHD5, 1-acylglycerol-3-phosphate O-acyltransferase ABHD5), human (parent)
chain 1: MFPREKTWNISFAGCGFLGVYYVGVASCLREHAPFLVANATHIYGASAGALTATALVTGVCLGEAGAKFIEVSKEARKRFLGPLHPSFNLVKIIRSFLLKVLPADSHEHASGRLGISLTRVSDGENVIISHFNSKDELIQANVCSGFIPVYCGLIPPSLQGVRYVDGGISDNLPLYELKNTITVSPFSGESDICPQDSSTNIHELRVTNTSIQFNLRNLYRLSKALFPPEPLVLREMCKQGYRDGLRFLQRNGLLNRPNPLLALPPARPHGPEDKDQAVESAQAEDYSQLPGEDHILEHLPARLNEALLEACVEPTDLLTTLSNMLPVRLATAMMVPYTLPLESALSFTIRLLEWLPDVPEDIRWMKEQTGSICQYLVMRAKRKLGRHLPSRLPEQVELRRVQSLPSVPLSCAAYREALPGWMRNNLSLGDALAKWEECQRQLLLGLFCTNVAFPPEALRMRAPADPAPAPADPASPQHQLAGPAPLLSTPAPEARPVIGALGL
chain 2: MAAEEEEVDSADTGERSGWLTGWLPTWCPTSISHLKEAEEKMLKCVPCTYKKEPVRISNGNKIWTLKFSHNISNKTPLVLLHGFGGGLGLWALNFGDLCTNRPVYAFDLLGFGRSSRPRFDSDAEEVENQFVESIEEWRCALGLDKMILLGHNLGGFLAAAYSLKYPSRVNHLILVEPWGFPERPDLADQDRPIPVWIRALGAALTPFNPLAGLRIAGPFGLSLVQRLRPDFKRKYSSMFEDDTVTEYIYHCNVQTPSGETAFKNMTIPYGWAKRPMLQRIGKMHPDIPVSVIFGARSCIDGNSGTSIQSLRPHSYVKTIAILGAGHYVYADQPEEFNQKVKEICDTVD

Variants of: B1
Assay: LUMIER: Protein A-ATGL variant and firefly luciferase-partner co-expressed in HEK293T, lysates immunoprecipitated on IgG-coated plates, co-precipitated partner measured as luciferase luminescence
Conditions: with CGI-58 (ABHD5, 1-acylglycerol-3-phosphate O-acyltransferase ABHD5), transient co-transfection, IgG-coated LUMITRAC plates, 2 h at 4 °C, three PBS washes, Bright-Glo luciferase reagent, triplicates per assay, two …, scale: log2 fold change of co-immunoprecipitated luminescence relative to wild-type ATGL within each experiment

Variant	screen value (parent: 0.32, not graded)	screen value (parent: 0.45, not graded)
chain 1 MFPREKTWNISFAGCGFLGVYYVGVASCLREHAPFLVANATHIYGASAGALTATALVTGVCLGEAGAKFIEVSKEARKRFLGPLHPSFNLVKIIRSFLLKVLPADSHEHASGRLGISLTRVSDGLNVIISHFNSKDELIQANVCSGFIPVYCGLIPPSLQGVRYVDGGISDNLPLYELKNTITVSPFSGESDICPQDSSTNIHELRVTNTSIQFNLRNLYRLSKALFPPEPLVLREMCKQGYRDGLRFLQRNGLLNRPNPLLALPPARPHGPEDKDQAVESAQAEDYSQLPGEDHILEHLPARLNEALLEACVEPTDLLTTLSNMLPVRLATAMMVPYTLPLESALSFTIRLLEWLPDVPEDIRWMKEQTGSICQYLVMRAKRKLGRHLPSRLPEQVELRRVQSLPSVPLSCAAYREALPGWMRNNLSLGDALAKWEECQRQLLLGLFCTNVAFPPEALRMRAPADPAPAPADPASPQHQLAGPAPLLSTPAPEARPVIGALGL [chain 1 E125L]	-0.624	-0.2
chain 1 MFPREKTWNISFAGCGFLGVYYVGVASCLREHAPFLVANATHIYGASAGALTATALVTGVCLGEAGAKFIEVSKEARKRFLGPLHPSFNLVKIIRSFLLKVLPADSHEHASGRLGISLTRVSDGENVIISHFNSKDELIQANVCSGFIPVYCGLIPPSLQGVRYVDGGISDNLPLYELKNTITVSPFSGESDICPQDSSTNIHELRVTNTSIQFNLRNLYRLSKALFPPEPLVLREMCKQGYRDGLRFLQRNGLLNRPNPLLALPPARPHGPEDKDQAVESAQAEDYSQLPGEDHILEHLPARLNEALLEACVAPTDLLTTLSNMLPVRLATAMMVPYTLPLESALSFTIRLLEWLPDVPEDIRWMKEQTGSICQYLVMRAKRKLGRHLPSRLPEQVELRRVQSLPSVPLSCAAYREALPGWMRNNLSLGDALAKWEECQRQLLLGLFCTNVAFPPEALRMRAPADPAPAPADPASPQHQLAGPAPLLSTPAPEARPVIGALGL [chain 1 E314A]	-0.218	-0.112
chain 1 MFPREKTWNISFAGCGFLGVYYVGVASCLREHAPFLVANATHIYGASAGALTATALVTGVCLGEAGAKFIEVSKEARKRFLGPLHPSFNLVKIIRSFLLKVLPADSHEHASGRLGISLTRVSDGENVIISHFNSKDELIQANVCSGFIPVYCGLIPPSLQGVRYVDGGISDNLPLYELKNTITVSPFSGESDICPQDSSTNIHELRVTNTSIQFNLRNLYRLSKALFPPEPLVLREMCKQGYRDGLRFLQRNGLLNRPNPLLALPPARPHGPEDKDQAVESAQAEDYSQLPGEDHILEHLPARLNEALLEACVEPTDLLTTLSNMLPVRLATAMMVPYTLPLESALSFTIRLLEWLPDVPEDIRWMKAQTGSICQYLVMRAKRKLGRHLPSRLPEQVELRRVQSLPSVPLSCAAYREALPGWMRNNLSLGDALAKWEECQRQLLLGLFCTNVAFPPEALRMRAPADPAPAPADPASPQHQLAGPAPLLSTPAPEARPVIGALGL [chain 1 E368A]	-0.427	-0.714

Source: article PMC10958042
